These results are taken from PMC13571933, “Active transport by cytoplasmic dynein sustains dendritic MAP2 localization in developing neurons” (The Journal of Biological Chemistry, 2026).

Assay [1] deals with GFP-MAP2C ΔSP (human MAP2C lacking the serine/proline-rich region), expressed in HEK293 cells (human) (UniProt P11137). Nature of the assay: co-IP; anti-His antibody on Dynabeads Protein G; 500 μg lysate of HEK293 cells co-expressing DHC1 and GFP-His-MAP2C; 50 mM Hepes pH 7.4, 100 mM NaCl, 2 mM EDTA, 0.5% Triton X-100; 1 h at 4 °C; blot with anti-DHC1 and anti-GFP, bands quantified with ImageJ.

Assay [2] has as its target T1, microtubules (MTs), endogenous in cultured rat hippocampal neurons (rat (endogenous in hippocampal neurons), UniProt Q4QRB4 1-450, Representative alpha/beta heterodimer of a microtubule polymer (many copies). Endogenous neuronal microtubules are a mixture of tubulin isotypes. The alpha member is not told in the paper (Tuba1a assu)). The assay is described as follows: FRAP fitted with a reaction-diffusion simulation; as a3 but with 40 μM MT binding sites assumed. The settings on record: partners not purified.

Assay [3] concerns the target T1, microtubules (MTs), endogenous in …. Nature of the assay: FRAP fitted with a reaction-diffusion simulation; FRAP of GFP-MAP2C in living neurons; KD from the best fit of a VCell simulation; 75 μM MT binding sites, 25 μM GFP-MAP2C and 5 μM endogenous MAP2 assumed; kon set, koff adjusted. The settings on record: partners not purified.

“cytoplasmic dynein heavy chain 1 (DHC1), expressed from a plasmid in HEK293 cells, Q14204 1-4646” had a co-immunoprecipitated DHC1 normalized to immunoprecipitated GFP-MAP2C, relative to WT (relative to the WT condition (set to 1)) in assay [1] of 0.45.

B1: GFP-MAP2C (human MAP2C tagged with AcGFP and 6xHis, wild type), expressed in cultured rat hippocampal neurons (natural protein, UniProt P11137-2 1-471, looked up)
chain: MADERKDEAKAPHWTSAPLTEASAHSHPPEIKDQGGAGEGLVRSANGFPYREDEEGAFGEHGSQGTYSNTKENGINGELTSADRETAEEVSARIVQVVTAEAVAVLKGEQEKEAQHKDQTAALPLAAEETANLPPSPPPSPASEQTVTVEEAAGGESALAPSVFKQAKDKVSDGVTKSPEKRSSLPRPSSILPPRRGVSGDRDENSFSLNSSISSSARRTTRSEPIRRAGKSGTSTPTTPGSTAITPGTPPSYSSRTPGTPGTPSYPRTPHTPGTPKSAILVPSEKKVAIIRTPPKSPATPKQLRLINQPLPDLKNVKSKIGSTDNIKYQPKGGQVQIVTKKIDLSHVTSKCGSLKNIRHRPGGGRVKIESVKLDFKEKAQAKVGSLDNAHHVPGGGNVKIDSQKLNFREHAKARVDHGAEIITQSPGRSSVASPRRLSNVSSSGSINLLESPQLATLAEDVTAALAKQGL
notes: MAP2C, low molecular weight isoform of human microtubule-associated protein 2; the 471-amino-acid isoform; Same construct as m1, other host; also called wild-type GFP-MAP2C; WT; source: cultured rat hippocampal neurons, transfected, in living cells; not shown: AcGFP, N-terminal, kept
Regarding B1, the figures for the Kd in assay [2] and in assay [3] were 1000 nM and 4500 nM, respectively.

For orientation: Kd means the constant that tells how readily two partners part at equilibrium.
